In patent US20250353906A1:

Target: human TNFα (human) (UniProt P01375)
Assay: cell-based or functional assay

human TNFα (human), sequence (P01375 77-233 limits assumed): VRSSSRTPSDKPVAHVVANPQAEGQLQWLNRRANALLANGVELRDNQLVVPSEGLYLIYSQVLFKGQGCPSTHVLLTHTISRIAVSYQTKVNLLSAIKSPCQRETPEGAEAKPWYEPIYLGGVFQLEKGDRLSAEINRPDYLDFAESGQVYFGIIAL

- IC50 (nM, replicate 2), inhibition of TNFα signaling in HEK-BLUE TNFα cells: 0.07 nM
Substance: Etanercept (PRO078) (Fc fusion)
